Reference: patent US20200199241A1 (Chugai, published 2020)
Substitutions are numbered along the chain they refer to. Names and notes keep the numbering of the source. Values belong to the binder of their own block, whether it stands above or below them.

Columns and labels:
[1] = target: T1, human FcRn (soluble human FcRn complexed with β2-microglobulin) (human, UniProt P61769 21-119, limits assumed); experiment: SPR, antibody captured by Protein L, human FcRn as analyte, pH 7.0, 25 C
T1 construct: also called hFcRn

human FcγRIa [2] = target: T2, human FcγRIa (human, UniProt P12314 16-292, limits assumed); experiment: SPR, antibody captured by Protein L, human FcγR as analyte, pH 7.4, 25 C
T2 construct: also called hFcgRIa; hFcgRI

human FcγRIIb [3] = target: T3, human FcγRIIb (human, UniProt P31994 43-217, limits assumed); experiment: as above
T3 construct: also called hFcgRIIb; FcγIIB
T3 sequence: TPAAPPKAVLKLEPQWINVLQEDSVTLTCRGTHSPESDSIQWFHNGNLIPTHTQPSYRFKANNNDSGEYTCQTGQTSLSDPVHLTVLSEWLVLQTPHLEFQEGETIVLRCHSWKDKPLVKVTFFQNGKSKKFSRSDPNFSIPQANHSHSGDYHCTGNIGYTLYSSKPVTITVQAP

human FcγRIIa(R) [4] = target: T4, human FcγRIIa(R) (human, UniProt P12318 36-217); experiment: as above
T4 construct: also called hFcgRIIa(R); FcγRIIa type R
T4 chain: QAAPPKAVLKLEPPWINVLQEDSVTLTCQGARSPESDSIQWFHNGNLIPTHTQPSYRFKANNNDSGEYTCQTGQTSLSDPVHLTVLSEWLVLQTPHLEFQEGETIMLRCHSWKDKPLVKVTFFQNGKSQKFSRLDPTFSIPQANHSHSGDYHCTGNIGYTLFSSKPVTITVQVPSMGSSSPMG

human FcγRIIa(H) [5] = target: T5, human FcγRIIa(H) (human, UniProt P12318 36-217); experiment: as above
T5 construct: also called hFcgRIIa(H); FcγRIIa type H
T5 sequence: T4 chain with R133H

human FcγRIIb [6] = target: T6, human FcγRIIb (human, UniProt P31994 43-217, limits assumed); experiment: SPR, antibody captured by Protein A, FcγR analyte, 1:1 Langmuir fit
T6 construct: also called FcgRIIb; hFcgRIIb
T6 sequence: T3 sequence

human FcγRIIa(R) [7] = target: T7, human FcγRIIa(R) (human, UniProt P12318 36-217); experiment: as above
T7 construct: also called FcgRIIaR; hFcgRIIa(R)
T7 chain: T4 chain

human FcγRIIa(H) [8] = target: T8, human FcγRIIa(H) (human, UniProt P12318 36-217); experiment: as above
T8 construct: also called FcgRIIaH; hFcgRIIa(H)
T8 sequence: T4 chain with R133H

human FcγRIa [9] = target: T9, human FcγRIa (human, UniProt P12314 16-292, limits assumed); experiment: as above
T9 construct: also called FcgRIa; hFcgRIa

human FcγRIIa(H) [10] = target: T8, human FcγRIIa(H); experiment: SPR, antibody captured by Protein A, FcγR analyte; * calculated with Equation 5
human FcγRIIb [11] = target: T6, human FcγRIIb; experiment: SPR
human FcγRIIa(R) [12] = target: T7, human FcγRIIa(R); experiment: SPR
human FcγRIIa(H) [13] = target: T8, human FcγRIIa(H); experiment: SPR
human FcγRIa [14] = target: T9, human FcγRIa; experiment: SPR
human FcγRIa [15] = target: T2, human FcγRIa; experiment: SPR, antibody captured on the chip, FcγR as analyte, HBS-EP+, 25 C; amount bound corrected for captured antibody
human FcγRIIb [16] = target: T3, human FcγRIIb; experiment: as above
human FcγRIIa(R) [17] = target: T4, human FcγRIIa(R); experiment: as above
human FcγRIIa(H) [18] = target: T5, human FcγRIIa(H); experiment: as above
[19] = target: T10, soluble human IL-6 receptor (human, UniProt P08887 20-357); experiment: Biacore SPR, 3 uM CaCl2, pH 7.4, 37C, estimated from Req and Rmax
T10 construct: also called hsIL-6R
T10 sequence: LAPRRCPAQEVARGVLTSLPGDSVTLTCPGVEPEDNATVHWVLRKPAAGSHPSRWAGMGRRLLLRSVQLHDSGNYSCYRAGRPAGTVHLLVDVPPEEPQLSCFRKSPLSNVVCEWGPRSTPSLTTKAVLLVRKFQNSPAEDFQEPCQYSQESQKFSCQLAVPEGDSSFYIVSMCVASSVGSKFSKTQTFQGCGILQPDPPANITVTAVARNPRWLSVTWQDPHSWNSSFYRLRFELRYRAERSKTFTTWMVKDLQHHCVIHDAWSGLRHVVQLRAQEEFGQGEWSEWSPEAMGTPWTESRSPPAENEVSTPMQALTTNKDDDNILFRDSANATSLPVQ

[20] = target: T10, soluble human IL-6 receptor; experiment: Biacore SPR, 3 uM CaCl2, pH 7.4, 37C, estimated
human FcγRIIb [21] = target: T11, human FcγRIIb (human, UniProt P31994 43-217, limits assumed); experiment: SPR (Biacore); KD for FcγRIIaR divided by KD for FcγRIIb of the same antibody
T11 construct: also called FcγIIB
T11 sequence: T3 sequence

human FcγRIIb [22] = target: T11, human FcγRIIb; experiment: SPR (Biacore); KD for FcγRIIaH divided by KD for FcγRIIb of the same antibody
human FcγRIIa type H = target: T12, human FcγRIIa type H (human, UniProt P12318 36-217); experiment: SPR (Biacore), antibody captured, FcγR as analyte
T12 construct: also called FcγRIIaH; FcγRIIa(H)
T12 sequence: T4 chain with R133H

human FcγRIa [23] = target: T13, human FcγRIa (human, UniProt P12314 16-292, limits assumed); experiment: SPR (Biacore), antibody captured, FcγR as analyte
T13 construct: also called CD64

human FcγRIIb [24] = target: T11, human FcγRIIb; experiment: SPR (Biacore), antibody captured, FcγR as analyte
human FcγRIIa type R = target: T14, human FcγRIIa type R (human, UniProt P12318 36-217); experiment: SPR (Biacore), antibody captured, FcγR as analyte
T14 construct: also called FcγRIIaR; FcγRIIa(R)
T14 chain: T4 chain

human FcγRIIb [25] = target: T11, human FcγRIIb; experiment: SPR (Biacore); ratio against parent IL6R-F11/IL6R-L

B2: IL6R-G1d/IL6R-L (antibody, human IgG1)
heavy: not shown
light: DIQMTQSPSSLSASVGDRVTITCRASQDISSYLNWYQQKPGKAPKLLIYYTSRLHSGVPSRFSGSGSGTDFTFTISSLQPEDIATYYCQQGNTLPYTFGQGTKVEIK
notes: anti-human IL-6 receptor, G1d constant region; copies: 2 + 2
Kd (human FcγRIIb [6]): 5300 nM
Kd (human FcγRIIa(R) [7]): 1200 nM
Kd (human FcγRIIa(H) [8]): 770 nM
Kd (human FcγRIa [9]): 0.34 nM

B4: IL6R-G1d_v2/IL6R-L (antibody, human IgG1)
heavy: not shown
light: B2 light
notes: L328E (EU numbering) in IL6R-G1d; also called IgG1-v2; copies: 2 + 2
Kd (human FcγRIIa(H) [10]): 12000 nM
Kd (human FcγRIIb [6]): 2300 nM
Kd (human FcγRIIa(R) [7]): 2900 nM
Kd (human FcγRIa [9]): 0.46 nM
relative KD (KD of IgG1/KD of variant) (human FcγRIIb [11]): 2.3 fold
relative KD (KD of IgG1/KD of variant) (human FcγRIIa(R) [12]): 0.41 fold
relative KD (KD of IgG1/KD of variant) (human FcγRIIa(H) [13]): 0.064 fold
relative KD (KD of IgG1/KD of variant) (human FcγRIa [14]): 0.74 fold

B6: GpH7-G1d/GpL16-k0 (antibody, human IgG1)
heavy: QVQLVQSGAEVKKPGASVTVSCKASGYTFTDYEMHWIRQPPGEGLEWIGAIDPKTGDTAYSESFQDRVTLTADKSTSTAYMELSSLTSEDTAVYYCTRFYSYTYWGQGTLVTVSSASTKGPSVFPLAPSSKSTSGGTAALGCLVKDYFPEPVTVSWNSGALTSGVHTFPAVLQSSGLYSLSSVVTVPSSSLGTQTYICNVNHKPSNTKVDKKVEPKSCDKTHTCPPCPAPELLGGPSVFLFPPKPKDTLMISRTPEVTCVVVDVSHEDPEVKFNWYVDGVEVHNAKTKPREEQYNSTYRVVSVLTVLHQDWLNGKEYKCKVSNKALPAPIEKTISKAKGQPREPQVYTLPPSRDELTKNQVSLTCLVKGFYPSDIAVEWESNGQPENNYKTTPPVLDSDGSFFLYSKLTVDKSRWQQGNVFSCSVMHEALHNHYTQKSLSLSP
light: DIVMTQSPLSLPVTPGEPASISCQASESLVHSNRNTYLHWYLQKPGQSPQLLIYKVSNRFSGVPDRFSGSGSGTDFTLKISRVEAEDVGVYYCSQNTHVPPTFGQGTKVEIE
notes: anti-glypican-3 antibody; G1d is IgG1 with Gly and Lys deleted from the C terminus; copies: 2 + 2
relative binding activity (GpH7-G1d/GpL16-k0 = 100) (human FcγRIa [15]): 100
relative binding activity (GpH7-G1d/GpL16-k0 = 100) (human FcγRIIb [16]): 100
relative binding activity (GpH7-G1d/GpL16-k0 = 100) (human FcγRIIa(R) [17]): 100
relative binding activity (GpH7-G1d/GpL16-k0 = 100) (human FcγRIIa(H) [18]): 100

B9: 6RL#9-IgG1 (antibody, V domains shown, not shown: a dimerising Fc or GST)
VH: QVQLVQSGAEVKKPGASVKVSCKASGYTFTSYYMHWVRQAPGQGLEWMGIINPSGGSTSYAQKFQGRVTMTRDTSTSTVYMELSSLRSEDTAVYYCARDDPGGGEYYFDYWGQGTLVTVSS
VL: QSVLTQPPSVSGAPGQRVTISCTGSRSNMGAGYDVHWYQLLPGAAPKLLISHNTHRPSGVPDRFSGSKSGASASLAITGLQAEDEADYYCQSHDSSLSAVVFGGGTKLTVLS
Kd [19]: ~31000 nM
Kd [20]: ≥ 31000 nM

Next, values leading:

Kd [1]: 35 nM
BINDING AMOUNT (RU) (human FcγRIa [2]): -0.4 RU
BINDING AMOUNT (RU) (human FcγRIIb [3]): -1 RU
BINDING AMOUNT (RU) (human FcγRIIa(R) [4]): -1 RU
BINDING AMOUNT (RU) (human FcγRIIa(H) [5]): -0.8 RU
B1: VH3/L(WT)-IgG1-F763 (antibody, name in EU numbering)
heavy: QVQLQESGPGLVKPSETLSLTCAVSGHSISHDHAWSWVRQPPGEGLEWIGFISYSGITNYNPSLQGRVTISRDNSKNTLYLQMNSLRAEDTAVYYCARSLARTTAMDYWGEGTLVTVSSASTKGPSVFPLAPSSKSTSGGTAALGCLVKDYFPEPVTVSWNSGALTSGVHTFPAVLQSSGLYSLSSVVTVPSSSLGTQTYICNVNHKPSNTKVDKKVEPKSCDKTHTCPPCPAPELRGGPKVFLFPPKPKDTLYISRTPEVTCVVVDVSHEDPEVKFNWYVDGVEVHEAKTKPREEQYNSTYRVVSVLQVLHADWLNGKEYKCKVSNKALPAPIEKTISKAKGQPREPQVYTLPPSRDELTKNQVSLTCLVKGFYPSDIAVEWESNGQPENNYKTTPPVLDSDGSFFLYSKLTVDKSRWQQGNVFSCSVMHEALHYHYTQKSLSLSP
light: not shown
notes: copies: 2 + 2

Kd (human FcγRIIa(H) [10]): 56000 nM
Kd (human FcγRIIb [6]): 1100 nM
Kd (human FcγRIIa(R) [7]): 12000 nM
Kd (human FcγRIa [9]): 7.3 nM
relative KD (KD of IgG1/KD of variant) (human FcγRIIb [11]): 4.8 fold
relative KD (KD of IgG1/KD of variant) (human FcγRIIa(R) [12]): 0.1 fold
relative KD (KD of IgG1/KD of variant) (human FcγRIIa(H) [13]): 0.014 fold
relative KD (KD of IgG1/KD of variant) (human FcγRIa [14]): 0.047 fold
B3: IL6R-G1d_v1/IL6R-L (antibody, human IgG1)
heavy: not shown
light: B2 light
notes: P238D (EU numbering) in IL6R-G1d; also called IgG1-v1; copies: 2 + 2

Kd (human FcγRIIb [6]): 13 nM
Kd (human FcγRIIa(R) [7]): 2.3 nM
Kd (human FcγRIIa(H) [8]): 1500 nM
Kd (human FcγRIa [9]): 0.19 nM
relative KD (KD of IgG1/KD of variant) (human FcγRIIb [11]): 408 fold
relative KD (KD of IgG1/KD of variant) (human FcγRIIa(R) [12]): 522 fold
relative KD (KD of IgG1/KD of variant) (human FcγRIIa(H) [13]): 0.51 fold
relative KD (KD of IgG1/KD of variant) (human FcγRIa [14]): 1.8 fold
B5: IL6R-G1d_v3/IL6R-L (antibody, human IgG1)
heavy: not shown
light: B2 light
notes: S267E/L328F (EU numbering) in IL6R-G1d; also called IgG1-v3; copies: 2 + 2

relative binding activity (GpH7-G1d/GpL16-k0 = 100) (human FcγRIa [15]): 109
relative binding activity (GpH7-G1d/GpL16-k0 = 100) (human FcγRIIb [16]): 88
relative binding activity (GpH7-G1d/GpL16-k0 = 100) (human FcγRIIa(R) [17]): 94
relative binding activity (GpH7-G1d/GpL16-k0 = 100) (human FcγRIIa(H) [18]): 92
B7: GpH7-B3/GpL16-k0 (antibody, human IgG1)
heavy: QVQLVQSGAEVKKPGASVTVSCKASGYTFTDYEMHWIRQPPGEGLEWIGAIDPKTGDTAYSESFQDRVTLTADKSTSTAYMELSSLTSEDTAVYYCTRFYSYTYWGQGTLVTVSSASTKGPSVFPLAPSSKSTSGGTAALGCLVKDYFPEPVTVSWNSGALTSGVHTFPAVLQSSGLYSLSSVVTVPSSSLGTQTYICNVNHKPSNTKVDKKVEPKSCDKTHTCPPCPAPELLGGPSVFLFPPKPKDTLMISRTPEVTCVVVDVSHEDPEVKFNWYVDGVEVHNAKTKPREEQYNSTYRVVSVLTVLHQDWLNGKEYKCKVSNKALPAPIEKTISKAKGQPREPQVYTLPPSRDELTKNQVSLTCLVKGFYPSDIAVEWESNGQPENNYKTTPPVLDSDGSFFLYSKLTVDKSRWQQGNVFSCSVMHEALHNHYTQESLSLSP
light: B6 light
notes: anti-glypican-3 antibody, constant region G1d with K439E; copies: 2 + 2

Kd [19]: ~34000 nM
Kd [20]: ≥ 34000 nM
B8: FH4-IgG1 (antibody, V domains shown)
VH: QVQLVQSGAEVKKPGSSVKVSCKASGGTFSSYAISWVRQAPGQGLEWMGGIIPIFGTANYAQKFQGRVTITADESTSTAYMELSSLRSEDTAVYYCARERDYYDSSGYYDAFDIWGQGTMVTVSS
VL: ETTVTQSPSFLSASVGDRVTITCITTTDIDDDMNWFQQEPGKAPKLLISEGNILRPGVPSRFSSSGYGTDFTLTISKLQPEDFATYYCLQSDNLPFTFGQGTKLEIKR

KD(IIaR)/KD(IIb) (human FcγRIIb [21]): 0.7
KD(IIaH)/KD(IIb) (human FcγRIIb [22]): 0.7
Kd (human FcγRIIa type H): 5000 nM
Kd (human FcγRIa [23]): 0.9 nM
Kd (human FcγRIIb [24]): 6800 nM
Kd (human FcγRIIa type R): 5000 nM
KD(IIb) of parent polypeptide/KD(IIb) of altered polypeptide (human FcγRIIb [25]): 1
B10: IL6R-F11/IL6R-L (antibody, human IgG1)
heavy: not shown
light: B2 light
notes: IL6R-G1d with M252Y/N434Y (EU numbering)
